# B1: 22210 (protein)
# chain: MALPVTALLLPLALLLHAARPACPQLGPYELWELSHGTGGGGSGGGGSGGGGSEFDIQMTQSPSSLSASVGDRVTITCKASDHINNWLAWYQQKPGQAPKLLIYGATTLETGVPSRFSGSGSGTDYTLTISSLQPEDFATYYCQQSWNTPWTFGQGTKLEIKRLEDLKNVFPPEVAVFEPSKAEIAHTQKATLVCLATGFYPDHVELSWWVNGKEVHSGVCTDPQPLKEQPALNDSRYCLSSRLRVSATFWQNPRNHFRCQVQFYGLSENDEWTQDRAKPVTQIVSAEAWGRADCGITSASYHQGVLSATILYEILLGKATLYAVLVSALVLMAMVKRKDSRGRAKRSGSGATNFSLLKQAGDVEENPGPTSATMDWIWRILFLVGAATGAHSGPQVQLQESGGGLAQAGGSLRLSCAASGRTFSMGWFRQAPGKEREFVAAITYSGGSPYYASSVRGRFTISRDNAKNTVYLQMNSLKPEDTAVYYCAANPTYGSDWNAENWGQGTQVTVSSGSGGGGSGGGGSGGGGSFEQVQLQQPGAELVKPGASVKMSCKASGYAFSSYWINWMKQKPGQGLEWIGQIYPGDGDTNYNGKFKGRATLTADTSSSTAYMQLSSLTSEDSAVYFCARSITTVVGCAMDYWGQGTSVTVSSTRIQNPDPAVYQLRDSKSSDKSVCLFTDFDSQTNVSQSKDSDVYITDKCVLDMRSMDFKSNSAVAWSNKSDFACANAFNNSIIPEDTFFPSSDVPCDVKLVEKSFETDTNLNFQNLSVIGFRILLLKVAGFNLLMTLRLWSSRAKRSGSGVKQTLNFDLLKLAGDVESNPGPSRGHMTEYKPTVRLATRDDVPRAVRTLAAAFADYPATRHTVDPDRHIERVTELQELFLTRVGLDIGKVWVADDGAAVAVWTTPESVEAGAVFAEIGPRMAELSGSRLAAQQQMEGLLAPHRPKEPAWFLATVGVSPDHQGKGLGSAVVLPGVEAAERAGVPAFLETSAPRNLPFYERLGFTVTADVEVPEGPRTWCMTRKPGA
# B2: 22091 (protein)
# chain: MALPVTALLLPLALLLHAARPQLQLQESGPGLVKPSETLSLTCTVSGDSISSGDYYWGWIRQPPGKGLEWIGHIYYSGVTYYNPSLKSRVTISVDTSRNQFSLKLSSVTAADTAVYYCTREDSSNWRSRGQGTLVTVSSLEDLKNVFPPEVAVFEPSKAEIAHTQKATLVCLATGFYPDHVELSWWVNGKEVHSGVCTDPQPLKEQPALNDSRYCLSSRLRVSATFWQNPRNHFRCQVQFYGLSENDEWTQDRAKPVTQIVSAEAWGRADCGITSASYHQGVLSATILYEILLGKATLYAVLVSALVLMAMVKRKDSRGRAKRSGSGATNFSLLKQAGDVEENPGPTSMDWIWRILFLVGAATGAHSFEVQLLESGGGLIQPGGSLRLSCAASGFTFSSHAMTWVRQAPGKGLEWVSAISGSGDYTHYADSVKGRFTISRDNSKNTVYLQMNSLRAEDSAVYYCAKDEDGGSLLGHRGQGTLVTVSSTRIQNPDPAVYQLRDSKSSDKSVCLFTDFDSQTNVSQSKDSDVYITDKCVLDMRSMDFKSNSAVAWSNKSDFACANAFNNSIIPEDTFFPSPESSCDVKLVEKSFETDTNLNFQNLSVIGFRILLLKVAGFNLLMTLRLWSSRAKRSGSGVKQTLNFDLLKLAGDVESNPGPSRGHMTEYKPTVRLATRDDVPRAVRTLAAAFADYPATRHTVDPDRHIERVTELQELFLTRVGLDIGKVWVADDGAAVAVWTTPESVEAGAVFAEIGPRMAELSGSRLAAQQQMEGLLAPHRPKEPAWFLATVGVSPDHQGKGLGSAVVLPGVEAAERAGVPAFLETSAPRNLPFYERLGFTVTADVEVPEGPRTWCMTRKPGA
# B3: 22209 (protein)
# chain: MALPVTALLLPLALLLHAARPACPYINIYNAEPANPSEKNSPTQYAYGTGGGGSGGGGSGGGGSEFDIQMTQSPSSLSASVGDRVTITCKASDHINNWLAWYQQKPGQAPKLLIYGATTLETGVPSRFSGSGSGTDYTLTISSLQPEDFATYYCQQSWNTPWTFGQGTKLEIKRLEDLKNVFPPEVAVFEPSKAEIAHTQKATLVCLATGFYPDHVELSWWVNGKEVHSGVCTDPQPLKEQPALNDSRYCLSSRLRVSATFWQNPRNHFRCQVQFYGLSENDEWTQDRAKPVTQIVSAEAWGRADCGITSASYHQGVLSATILYEILLGKATLYAVLVSALVLMAMVKRKDSRGRAKRSGSGATNFSLLKQAGDVEENPGPTSATMDWIWRILFLVGAATGAHSGPQVQLQESGGGLAQAGGSLRLSCAASGRTFSMGWFRQAPGKEREFVAAITYSGGSPYYASSVRGRFTISRDNAKNTVYLQMNSLKPEDTAVYYCAANPTYGSDWNAENWGQGTQVTVSSGSGGGGSGGGGSGGGGSFEQVQLQQPGAELVKPGASVKMSCKASGYAFSSYWINWMKQKPGQGLEWIGQIYPGDGDTNYNGKFKGRATLTADTSSSTAYMQLSSLTSEDSAVYFCARSITTVVGCAMDYWGQGTSVTVSSTRIQNPDPAVYQLRDSKSSDKSVCLFTDFDSQTNVSQSKDSDVYITDKCVLDMRSMDFKSNSAVAWSNKSDFACANAFNNSIIPEDTFFPSSDVPCDVKLVEKSFETDTNLNFQNLSVIGFRILLLKVAGFNLLMTLRLWSSRAKRSGSGVKQTLNFDLLKLAGDVESNPGPSRGHMTEYKPTVRLATRDDVPRAVRTLAAAFADYPATRHTVDPDRHIERVTELQELFLTRVGLDIGKVWVADDGAAVAVWTTPESVEAGAVFAEIGPRMAELSGSRLAAQQQMEGLLAPHRPKEPAWFLATVGVSPDHQGKGLGSAVVLPGVEAAERAGVPAFLETSAPRNLPFYERLGFTVTADVEVPEGPRTWCMTRKPGA
# B4: 21986 (protein)
# chain: MALPVTALLLPLALLLHAARPQLQLQESGPGLVKPSETLSLTCTVSGDSISSGDYYWGWIRQPPGKGLEWIGHIYYSGVTYYNPSLKSRVTISVDTSRNQFSLKLSSVTAADTAVYYCTREDSSNWRSRGQGTLVTVSSLEDLKNVFPPEVAVFEPSEAEISHTQKATLVCLATGFYPDHVELSWWVNGKEVHSGVCTDPQPLKEQPALNDSRYCLSSRLRVSATFWQNPRNHFRCQVQFYGLSENDEWTQDRAKPVTQIVSAEAWGRADCGFTSESYQQGVLSATILYEILLGKATLYAVLVSALVLMAMVKRKDSRGRAKRSGSGATNFSLLKQAGDVEENPGPTSMDWIWRILFLVGAATGAHSFEEVQLLESGGGLVQPGGSLRLSCAASGFTFSSYAMSWVRQAPGKGLEWVSSISGSGDYIYYADSVKGRFTISRDISKNTLYLQMNSLRAEDTAVYYCAKEGTGANSSLADYRGQGTLVTVSSTRIQNPDPAVYQLRDSKSSDKSVCLFTDFDSQTNVSQSKDSDVYITDKCVLDMRSMDFKSNSAVAWSNKSDFACANAFNNSIIPEDTFFPSPESSCDVKLVEKSFETDTNLNFQNLSVIGFRILLLKVAGFNLLMTLRLWSSRAKRSGSGVKQTLNFDLLKLAGDVESNPGPSRGHMTEYKPTVRLATRDDVPRAVRTLAAAFADYPATRHTVDPDRHIERVTELQELFLTRVGLDIGKVWVADDGAAVAVWTTPESVEAGAVFAEIGPRMAELSGSRLAAQQQMEGLLAPHRPKEPAWFLATVGVSPDHQGKGLGSAVVLPGVEAAERAGVPAFLETSAPRNLPFYERLGFTVTADVEVPEGPRTWCMTRKPGA
# Columns and labels:
# Type in all cases: cell-based
# RAJI cells = experiment: JNG assay, co-culture with RAJI cells; details: JNG cells expressing construct, co-culture with Raji
# Outline: (§1)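 Jurkat-NFAT-GFP (JNG) cells stably expressing SAR constructs via lentiviral transduction and puromycin/blasticidin selection were cocultured with target cells at E:T ~1:2 for ~4–18 h. NFAT-driven GFP was measured by FACS versus parental JNG cells; scores +/- to 5+ denote ~5–50% GFP-positive cells.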
# Nalm6 cells = experiment: JNG assay, co-culture with Nalm6 cells; details: co-culture with Nalm6
# Description: Cellular supernatant is collected and assayed for the induction of cytokines (e.g., IL2).
# JNG (Jurkat cells expressing EGFP under an NFAT promoter) were infected with lentiviral vectors encoding different single chain and multi-chain SARs by spinfection in the presence of 8 µg/ml of Polybrene® (Sigma, Catalog no. H9268). The Jurkat-NFAT-GFP cells are engineered in such a way that the IL-2 promoter, which carries NFAT binding sites, is cloned upstream of the GFP gene. These cells have been used to study signaling via TCR and CAR. The different SARs were stably expressed in Jurkat NFAT-GFP cells by lentiviral mediated gene transfer, followed by selection with puromycin or blasticidin. No drug selection was used in case the construct lacked an antibiotic resistance gene. The SAR-expressing Jurkat-NFAT-GFP cells were cocultured with the target cells at E:T ratio of approximately 1:2 for approximately 4 hours to 18 hours. When the interaction between SIRs and their target antigen results in activation of the NFAT pathway, GFP expression is induced. […] GFP expression was monitored by FACS analysis. The Jurkat-NFAT-GFP (parental) cells were used as control. The structure of different constructs can be determined based on their names. For example, the construct CD8SP-CD19-hu-mROO5-1-vL-[hTCRa-C SDVP]-F-F2A-Spe-IgHSP-Apa-CD20-vHH-2HCD25-G4S-CDl9-hu-mROO5-1-vH-Mlu-[hTCRb-KACIAH]-F-P2A-PAC has the following modules from 5′ to 3′ direction: a CD8 signal peptide (CD8SP), the CD19 targeting hu-mROO5-1 vL fragment (CD19-hu-mROO5-1), Xho1 cloning site, human TCRa constant chain containing CSDVP mutations (hTCRa-CSDVP), Furine cleavage site (F), F2A ribosomal skip sequence (F2A), SpeI site, human IgH signal peptide (IgHSP), Apa I restriction enzyme site, camelid CD20-2HCD25-VHH module targeting CD20, BamHI restriction enzyme site, Glycinex4-serine linker (G4S), BstI restriction enzyme site, CD19-hu-mROO5-1-vH fragment targeting CD19, Mlu I restriction enzyme site, human TCRb constant chain containing KACIAH mutations ([hTCRb-KACIAH]), Furine cleavage site (F), P2A ribosomal skip sequence and Puromycin resistance gene (PAC). The sequence of the other constructs in the table can be similarly determined from their names and by referring to the different Tables of this disclosure that provide the names and SEQ ID NO of the different modules. Alternatively, the composition and modular architecture of the different SAR constructs can be determined from their sequences by bioinformatics tools, including using nucleic acid and amino acids homology searches. A SAR is considered positive in the assay in case the SAR expressing Jurkat-NFAT-GFP cells show greater % GFP positive cells when cultured with the target cell line as compared to parental Jurkat-NFAT-GFP cells. The signs +/-, +, 2+ etc. after the name of the cell lines indicate the relative degree of positivity on the Jurkat-NFAT-GFP assay as measured by the % GFP positive cells after culture of the SAR expressing Jurkat-NFAT-GFP cells with that cell line above the % GFP cells observed in parental Jurkat NFAT-GFP cells serving as controls. In general, the number +/-, +, 2+, 3+, 4+, 5+ refer to approximately 5%, 10%, 20%, 30%, 40% and 50% GFP positive cells. The % of GFP induction in the above assay is dependent not only the relative strength of the SAR but also, among other factors, on the relative level of expression of the SAR in the JNG cells and the relative level of expression of the target antigen in the target cell line. To control for the difference in gene transduction efficiency of the different SAR constructs, the experiment was conducted with JNG cells transduced with SAR constructs co-expressing a drug resistance gene (e.g., puromycin or PAC) followed by drug selection to generate a stable population of SAR-expressing cells. […]
# L363 cells = experiment: JNG assay, co-culture with L363 cells; details: co-culture with L363
# Outline: as §1
Molecule,NFAT-GFP ASSAY: Raji (RAJI cells),NFAT-GFP ASSAY: Nalm6 (Nalm6 cells),NFAT-GFP ASSAY: L363 (L363 cells)
B1,"2+ (refer to approximately 5%, 10%, 20%, 30%, 40% and 50% GFP positive cells)","+ (refer to approximately 5%, 10%, 20%, 30%, 40% and 50% GFP positive cells)",
B2,"+ (refer to approximately 5%, 10%, 20%, 30%, 40% and 50% GFP positive cells)","+/- (refer to approximately 5%, 10%, 20%, 30%, 40% and 50% GFP positive cells)",
B3,"2+ (refer to approximately 5%, 10%, 20%, 30%, 40% and 50% GFP positive cells)","2+ (refer to approximately 5%, 10%, 20%, 30%, 40% and 50% GFP positive cells)",
B4,,"+/- (refer to approximately 5%, 10%, 20%, 30%, 40% and 50% GFP positive cells)","+ (refer to approximately 5%, 10%, 20%, 30%, 40% and 50% GFP positive cells)"
